Target: HIV-1 envelope glycoprotein gp120 (YU2) (HIV-1 (YU2)) (UniProt P35961)
Assay: SPR; BIAcore 3000, CM4 chip; gp120YU2 amine-coupled (514 RU for the Lg-CRD chip, 838 RU for the Lg-ECD chip), BSA control flow cell; Langerin injected at 20 µl/min; running buffer 150 mM NaCl, 25 mM Tris pH 7.8, 4 mM CaCl2, 0.005% P20; regeneration with 50 mM EDTA; 1:1 Langmuir fit for Lg-CRD, EC50 from titration for Lg-ECD

## Langerin carbohydrate-recognition domain (CRD) (domain or fragment)
  Kd: 25 µM

Source: paper PMC3511376
